# Results reported in patent US20150086555A1.
# B1: TCN-530 (5248_H10a) (antibody, V domains shown)
# VH: QVQLVQSGAEVRKPGSSVKVSCKASGGPFMSYAIGWVRQAPGQGLEWMGGINPVFGRPHYAQKFQGRVTIATDDSTKTSYMELSSLTSEDTGMYYCASRYSRSSPGTFESWGQGTLVTVSS
# VL: EIVMTQFPATLSVSPGERVTLSCRASQSVSNNLAWYQQKPGQPPRLLIYDASTRATGVPAKFSGTGSGTEFTLSISSLQSEDFAVYYCQQYHNWPPSYSFGLGTKLEIK
# B2: TCN-535 (5246_P19) (antibody, V domains shown)
# VH: QVQLVQSGSEVKKPGTSVKVSCTASGSVFTNYGISWVRQAPGQGLEWMGGIIPLFGAAKYAQKFQGRVTITADESTKTVYMELSRLTSKDTAIYFCAKAPRVYEYYFDQWGQGTPVTVSS
# VL: EIVLTQSPGTLSLSPGERATLSCRASQSVSSSQLAWYQQKPGQAPRLIIYGASTRATGIPDRFSGSGSGTDFTLTIGRLEPEDFAVFFCQQYSTSPPTFGQGTKVDFK
# B3: TCN-534 (5249_B02) (antibody, V domains shown)
# VH: QVQLVQSGAEVKKPGSSVKVSCRESGGTFNGYTITWVRQAPGQGLEWMGGIIPMMGTVNYAQKLQGRVTITTDYFTKTAYMDLNNLRSEDTAMYYCVKIRYTGQQLLWGQGTLVTVSS
# VL: DIQMTQSPSTLSASIGDRVTITCRASQSIASWLAWYQQKPGKAPKLLIYEAVNLESGVPSRFSGSGSGTDFTLTISSLQPDDFATYFCQHYGTISQTFGGGTKVEIK
# Key:
# Conditions in all cases: remark: other sources report otherwise
# [1] = target: recombinant soluble homotrimeric HA of A/Anhui/1/05 (H5N1) (Influenza A virus A/Anhui/1/2005(H5N1)); test: HA microarray, BCC supernatant
# [2] = target: recombinant soluble homotrimeric HA of A/California/4/09 (H1N1) (Influenza A virus A/California/04/2009(H1N1)); test: HA microarray, BCC supernatant
# [3] = target: recombinant soluble homotrimeric HA of A/Hong Kong/2108/03 (H9N2) (Influenza A virus A/HK/2108/2003(H9N2)); test: HA microarray, BCC supernatant
# [4] = target: recombinant soluble homotrimeric HA of A/Indonesia/5/05 (H5N1) (Influenza A virus A/Indonesia/5/2005(H5N1)); test: HA microarray, BCC supernatant
# [5] = target: recombinant soluble homotrimeric HA of A/Japan/305/57 (H2N2) (Influenza A virus A/Japan/305/1957(H2N2)); test: HA microarray, BCC supernatant
# [6] = target: recombinant soluble homotrimeric HA of A/Netherlands/219/03 (H7N7) (Influenza A virus A/Netherlands/219/03(H7N7)); test: HA microarray, BCC supernatant
# [7] = target: recombinant soluble homotrimeric HA of A/Solomon Islands/3/06 (H1N1) (Influenza A virus A/Solomon Islands/3/2006(H1N1)); test: HA microarray, BCC supernatant
# [8] = target: recombinant soluble homotrimeric HA of A/Vietnam/1203/04 (H5N1) (Influenza A virus A/VietNam/1203/2004(H5N1)); test: HA microarray, BCC supernatant
# [9] = target: recombinant soluble homotrimeric HA of A/Wisconsin/67/05 (H3N2) (Influenza A virus A/Wisconsin/67/2005(H3N2)); test: HA microarray, BCC supernatant
# [10] = target: recombinant soluble homotrimeric HA of A/chicken/Vietnam/NCVD-016/08 (H5N1) (Influenza A virus A/chicken/Vietnam/NCVD-016/2008(H5N1)); test: HA microarray, BCC supernatant
# [11] = target: recombinant soluble homotrimeric HA of A/duck/Yangzhou/02/05 (H8N4) (Influenza A virus A/duck/Yangzhou/02/2005(H8N4)); test: HA microarray, BCC supernatant
# [12] = target: recombinant soluble homotrimeric HA of A/northern shoveler/California/HKWF115/07 (H6) (Influenza A virus A/northern shoveler/California/HKWF115/2007(H6N1)); test: HA microarray, BCC supernatant
# [13] = target: recombinant soluble homotrimeric HA of A/swine/Ontario/01911-2/99 (H4N6) (Influenza A virus A/Swine/Ontario/01911-2/99 (H4N6)); test: HA microarray, BCC supernatant
# [14] = target: recombinant homotrimeric HA A/California/4/09 H1N1 (Influenza A virus A/California/04/2009(H1N1)); test: protein microarray, purified IgG, trimeric HA
# [15] = target: recombinant homotrimeric HA A/Egypt/3300-NAMRU3/08 H5N1 (Influenza A virus A/Egypt/3300-NAMRU3/2008(H5N1)); test: protein microarray, purified IgG, trimeric HA
# [16] = target: recombinant homotrimeric HA A/Hong Kong/1073/99 H9N2 (Influenza A virus A/Hong Kong/1073/99 (H9N2)); test: protein microarray, purified IgG, trimeric HA
# [17] = target: recombinant homotrimeric HA A/Hong Kong/156/97 H5N1 (Influenza A virus A/Hong Kong/156/97 (H5N1)); test: protein microarray, purified IgG, trimeric HA
# [18] = target: recombinant homotrimeric HA A/Hong Kong/2108/03 H9N2 (Influenza A virus A/HK/2108/2003(H9N2)); test: protein microarray, purified IgG, trimeric HA
# [19] = target: recombinant homotrimeric HA A/Indonesia/5/05 H5N1 (Influenza A virus A/Indonesia/5/2005(H5N1)); test: protein microarray, purified IgG, trimeric HA
# [20] = target: recombinant homotrimeric HA A/Japan/305/57 H2N2 (Influenza A virus A/Japan/305/1957(H2N2)); test: protein microarray, purified IgG, trimeric HA
# [21] = target: recombinant homotrimeric HA A/Netherlands/219/03 H7N7 (Influenza A virus A/Netherlands/219/03(H7N7)); test: protein microarray, purified IgG, trimeric HA
# [22] = target: recombinant homotrimeric HA A/Solomon Islands/3/06 H1N1 (Influenza A virus A/Solomon Islands/3/2006(H1N1)); test: protein microarray, purified IgG, trimeric HA
# [23] = target: recombinant homotrimeric HA A/South Carolina/1/18 H1N1 (Influenza A virus A/South Carolina/1/18 (H1N1)); test: protein microarray, purified IgG, trimeric HA
# [24] = target: recombinant homotrimeric HA A/Vietnam/1203/04 H5N1 (Influenza A virus A/VietNam/1203/2004(H5N1)); test: protein microarray, purified IgG, trimeric HA
# [25] = target: recombinant homotrimeric HA A/Wisconsin/67/05 H3N2 (Influenza A virus A/Wisconsin/67/2005(H3N2)); test: protein microarray, purified IgG, trimeric HA
# [26] = target: recombinant homotrimeric HA A/chicken/Vietnam/NCVD-016/08 H5N1 (Influenza A virus A/chicken/Vietnam/NCVD-016/2008(H5N1)); test: protein microarray, purified IgG, trimeric HA
# [27] = target: recombinant homotrimeric HA A/northern shoveler/California/HKWF115/07 H6N4 (Influenza A virus A/northern shoveler/California/HKWF115/2007(H6N1)); test: protein microarray, purified IgG, trimeric HA
# [28] = target: recombinant homotrimeric HA A/Anhui/1/05 H5N1 (Influenza A virus A/Anhui/1/2005(H5N1)); test: protein microarray, purified IgG, trimeric HA
Binder,Trimeric HA Binding: RLU [1] [RLU],Trimeric HA Binding: RLU [2] [RLU],Trimeric HA Binding: RLU [3] [RLU],Trimeric HA Binding: RLU [4] [RLU],Trimeric HA Binding: RLU [5] [RLU],Trimeric HA Binding: RLU [6] [RLU],Trimeric HA Binding: RLU [7] [RLU],Trimeric HA Binding: RLU [8] [RLU],Trimeric HA Binding: RLU [9] [RLU],Trimeric HA Binding: RLU [10] [RLU],Trimeric HA Binding: RLU [11] [RLU],Trimeric HA Binding: RLU [12] [RLU],Trimeric HA Binding: RLU [14] [RLU],Trimeric HA Binding: RLU [15] [RLU],Trimeric HA Binding: RLU [16] [RLU],Trimeric HA Binding: RLU [17] [RLU],Trimeric HA Binding: RLU [19] [RLU],Trimeric HA Binding: RLU [20] [RLU],Trimeric HA Binding: RLU [21] [RLU],Trimeric HA Binding: RLU [22] [RLU],further results
B1,11900,46600,486,39800,47000,2900,32800,7150,36800,48300,41700,45300,14200,12300,874,14000,10900,9040,402,8570,Trimeric HA Binding: RLU [13]: 2740 RLU; Trimeric HA Binding: RLU [18]: 169 RLU; Trimeric HA Binding: RLU [23]: 7360 RLU; Trimeric HA Binding: RLU [24]: 19100 RLU; Trimeric HA Binding: RLU [25]: 132 RLU; Trimeric HA Binding: RLU [26]: 2050 RLU; Trimeric HA Binding: RLU [27]: 9010 RLU
B2,6880,48600,861,45600,26100,4760,39400,4740,34300,50000,36600,48200,17200,18100,3470,13200,17900,13000,339,11300,Trimeric HA Binding: RLU [13]: 5950 RLU; Trimeric HA Binding: RLU [28]: 6700 RLU; Trimeric HA Binding: RLU [23]: 5660 RLU; Trimeric HA Binding: RLU [24]: 20800 RLU; Trimeric HA Binding: RLU [25]: 148 RLU; Trimeric HA Binding: RLU [26]: 2630 RLU; Trimeric HA Binding: RLU [27]: 5880 RLU
B3,6860,30100,165,46400,50600,4340,44200,3440,7980,56600,46500,52400,20700,18200,918,13200,19500,29100,3420,11400,Trimeric HA Binding: RLU [28]: 1900 RLU; Trimeric HA Binding: RLU [18]: 172 RLU; Trimeric HA Binding: RLU [23]: 9240 RLU; Trimeric HA Binding: RLU [24]: 25900 RLU; Trimeric HA Binding: RLU [26]: 5170 RLU; Trimeric HA Binding: RLU [27]: 21700 RLU
